Test results from US7867500B2, “Cofactor that modulates steroid receptor activities” (The United States of America as represented by the …, priority 2004, dated 2011).
One block for each molecule: values may come before it.

What was measured:
PRs (B-form) = target: T1, PRs (B-form) (Homo sapiens, UniProt P06401); test: Mammalian two-hybrid assay with VP16 full length receptor: PR; type: cell-based; conditions: 20 nM R5020
T1 construct: expressed in transfected cells; host or cells: CV-1
T1 sequence (P06401 1-933): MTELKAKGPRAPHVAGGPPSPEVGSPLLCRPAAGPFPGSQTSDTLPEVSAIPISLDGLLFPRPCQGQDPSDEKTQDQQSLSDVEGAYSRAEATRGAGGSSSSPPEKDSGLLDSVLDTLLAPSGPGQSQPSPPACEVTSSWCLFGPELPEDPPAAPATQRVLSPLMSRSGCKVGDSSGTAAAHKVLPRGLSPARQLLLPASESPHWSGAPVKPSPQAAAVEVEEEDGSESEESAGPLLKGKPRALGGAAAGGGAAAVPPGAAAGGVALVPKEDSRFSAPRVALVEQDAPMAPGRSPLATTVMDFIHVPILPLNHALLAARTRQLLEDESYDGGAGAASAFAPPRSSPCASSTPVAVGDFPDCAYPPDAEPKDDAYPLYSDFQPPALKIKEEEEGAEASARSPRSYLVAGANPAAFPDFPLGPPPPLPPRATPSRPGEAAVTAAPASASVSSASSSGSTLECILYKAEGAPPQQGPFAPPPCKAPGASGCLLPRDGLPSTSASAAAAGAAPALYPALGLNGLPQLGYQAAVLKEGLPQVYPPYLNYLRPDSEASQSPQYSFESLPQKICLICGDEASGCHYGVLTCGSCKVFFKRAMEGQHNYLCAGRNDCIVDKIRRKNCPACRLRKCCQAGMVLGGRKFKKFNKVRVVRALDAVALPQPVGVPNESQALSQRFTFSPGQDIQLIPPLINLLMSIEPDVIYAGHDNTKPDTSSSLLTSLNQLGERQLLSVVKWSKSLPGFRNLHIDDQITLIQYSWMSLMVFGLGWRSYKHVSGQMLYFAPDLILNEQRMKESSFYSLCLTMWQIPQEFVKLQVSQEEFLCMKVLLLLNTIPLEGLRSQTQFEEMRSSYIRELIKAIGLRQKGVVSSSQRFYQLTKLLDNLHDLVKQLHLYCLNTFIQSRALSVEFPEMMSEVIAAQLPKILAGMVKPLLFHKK
T1 sequence (Q6EMB2 838-1281 F1267S partner limits assumed): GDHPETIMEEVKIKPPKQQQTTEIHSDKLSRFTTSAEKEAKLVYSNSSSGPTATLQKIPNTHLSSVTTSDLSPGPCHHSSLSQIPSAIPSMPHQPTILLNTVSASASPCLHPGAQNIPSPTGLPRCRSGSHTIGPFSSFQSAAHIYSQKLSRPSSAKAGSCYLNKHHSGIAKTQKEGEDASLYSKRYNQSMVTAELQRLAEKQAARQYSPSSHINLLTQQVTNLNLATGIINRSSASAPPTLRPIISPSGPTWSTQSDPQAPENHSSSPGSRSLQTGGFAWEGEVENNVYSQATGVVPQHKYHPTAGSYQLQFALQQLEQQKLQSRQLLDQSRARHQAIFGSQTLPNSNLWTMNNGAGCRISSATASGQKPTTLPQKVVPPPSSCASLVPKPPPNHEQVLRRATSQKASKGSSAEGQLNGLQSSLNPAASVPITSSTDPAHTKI
Method: FIG. 6C1-3 illustrate the association of STAMP with assorted steroid/nuclear receptors, including glucocorticoid receptors (GRs), progesterone receptors (PRs), androgen receptors (ARs), estrogen receptors (ER α or β), PPARγ2 receptors, thyroid receptor beta (TR), and retinoid (α) receptors (RAR α or RXR α). Triplicate samples of CV-1 cells were transfected (as described for FIG. 6B) with GAL, or GAL fused to TIF2.4 or STAMP834C, plus VP16 fused to the indicated full length receptors and incubated with the appropriate steroid (1 μM Dex, 20 nM R5020, 1 nM R1881, 0.1 μM triiodothyronine, or 1 μM estradiol, roziglitazone, or 9-cis-retinoic acid). The average relative luciferase activities of 2-3 experiments±S.E.M. were then plotted. FIG. 6C1 illustrates the effects of STAMP association upon GR, PR and AR induced expression. FIG. 6C2 illustrates the effects of STAMP association upon ERα, ERβ and PPARγ2 induced expression. FIG. 6C3 illustrates the effects of STAMP association upon TR, RARα and RXRα induced expression.
These assays were conducted as described (He et al., 2002). […]

TIF2.4m123 = test: Mammalian two-hybrid assay in CV-1 cells with TIF2.4m123; type: cell-based; conditions: equal amounts of protein
From the text: FIG. 2A-2C illustrate the isolation and characterization of the partial clone of the protein that binds to TIF2.4. […] Five clones were obtained but only two (clones I and V) contained a protein that was needed for colony growth in the presence of the pSos/TIF2.4 fusion protein. After initial screening, only clone I (also named 6-6CL1) was selected for further investigation. FIG. 2B and FIG. 2C illustrate the selectivity of 6-6CL1 interactions with TIF2.4 in mammalian two-hybrid assays. Triplicate samples of CV-1 cells in 24-well plates were transiently transfected with the indicated GAL-DBD and VP16-AD plasmids along with the GAL4-regulated reporter, pFRLuc. The relative luciferase activity, normalized for the activity of the internal Renilla control, was determined and plotted as the average±S.D. The much lower activity of GAL/TIF2.4m123 was previously shown not to be due to unequal levels of protein expression (He et al., 2002). Similar results were obtained in three additional experiments. […] Triplicate samples of CV-1 cells in 24-well plates were analyzed as in (B&C) after being transiently transfected with GAL±6-6CL1 constructs and pFRLuc reporter along with VP16 chimeras of SRC-1 (FIG. 2D) or TIF2 (FIG. 2E) segments. Similar results for SRC-1 were obtained in two additional experiments (ND=not determined). […]

interaction with agonist-bound, full length PR (PRs (B-form)): interacted
B1: STAMP834C: STAMP fragment amino acids 834-1277, receptor interaction domain (RID) (protein)
chain: T1 sequence (Q6EMB2 838-1281 F1267S partner limits assumed)

B2: 6-6CL1: STAMP fragment amino acids 623-834, coactivator interaction domain (CID) (protein)
chain: ENTPKENSMKVREWNNKGGHCCKLETQELEPKFNLMQILQDNGNLSKMQARIAFSAYLQHVQIRLMKDSGGQTFSASWAAKEDEQMELVVRFLKRASNNLQHSLRMVLPSRRLALLERRRILAHQLGDFIIVYNKETEQMAEKKSKKKVEEEEEDGVNMENFQEFIRQASEAELEEVLTFYTQKNKSASVFLGTHSKISKNNNNYSDSGAKG
interaction with TIF2.4m123 (TIF2.4m123): did not interact
